Test results as given in PMC9482650, “Quantitative fragmentomics allow affinity mapping of interactomes” (Nature Communications, 2022).
One block for each binder: values may come before it.

Experiments:
Assay in all cases: holdup assay
Design in all cases: key: below the threshold = too weak to quantify, mostly under pKd 3.1 to 4
[1] = target: T1, CARD11, Q9BXL7
T1 sequence (Q9BXL7 662-765, limits assumed, looked up): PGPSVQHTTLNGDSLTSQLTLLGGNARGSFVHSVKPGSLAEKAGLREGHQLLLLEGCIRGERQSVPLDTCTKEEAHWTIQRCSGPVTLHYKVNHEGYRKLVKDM

[2] = target: DLG1_2, Q12959
[3] = target: T2, DLG3_2, Q92796
T2 sequence (Q92796 221-321, limits assumed, looked up): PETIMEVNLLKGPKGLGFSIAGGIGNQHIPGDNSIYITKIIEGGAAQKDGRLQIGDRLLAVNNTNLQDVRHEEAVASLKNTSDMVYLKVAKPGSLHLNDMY

[4] = target: T3, DLG3_3, Q92796
T3 sequence (Q92796 374-475, limits assumed, looked up): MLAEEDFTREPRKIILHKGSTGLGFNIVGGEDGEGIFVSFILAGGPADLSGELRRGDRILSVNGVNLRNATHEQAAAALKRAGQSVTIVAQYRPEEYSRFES

[5] = target: FRMPD2_2, Q68DX3
[6] = target: FRMPD2_3, Q68DX3
[7] = target: GIPC2, Q8TF65
[8] = target: T4, GRIP1_7, Q9Y3R0
T4 sequence (Q9Y3R0 999-1096, limits assumed, looked up): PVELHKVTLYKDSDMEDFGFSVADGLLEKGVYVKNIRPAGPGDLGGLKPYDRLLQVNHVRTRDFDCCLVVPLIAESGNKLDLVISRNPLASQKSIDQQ

[9] = target: GRIP2_5, Q9C0E4
[10] = target: Inadl_3, Q8NI35
[11] = target: Inadl_6, Q8NI35
[12] = target: Inadl_9, Q8NI35
[13] = target: LDB3, O75112
[14] = target: T5, LIN7C, Q9NUP9
T5 sequence (Q9NUP9 88-185, limits assumed, looked up): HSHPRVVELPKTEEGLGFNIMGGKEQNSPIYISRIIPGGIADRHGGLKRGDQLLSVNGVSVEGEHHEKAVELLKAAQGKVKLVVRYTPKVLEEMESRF

[15] = target: T6, LNX2_2, Q8N448
T6 sequence (Q8N448 334-432, limits assumed, looked up): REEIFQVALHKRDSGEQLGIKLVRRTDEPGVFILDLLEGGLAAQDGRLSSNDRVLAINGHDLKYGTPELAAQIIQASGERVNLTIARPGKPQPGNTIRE

[16] = target: T7, LNX2_3, Q8N448
T7 sequence (Q8N448 463-564, limits assumed, looked up): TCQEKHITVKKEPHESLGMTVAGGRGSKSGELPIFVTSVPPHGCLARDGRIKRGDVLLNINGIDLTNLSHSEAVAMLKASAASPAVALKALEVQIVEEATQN

[17] = target: T8, MPP7, Q5T2T1
T8 sequence (Q5T2T1 134-230, limits assumed, looked up): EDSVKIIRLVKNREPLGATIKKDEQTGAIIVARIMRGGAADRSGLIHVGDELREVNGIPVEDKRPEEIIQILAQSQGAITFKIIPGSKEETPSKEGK

[18] = target: T9, NHERF3_1, Q5T2W1
T9 sequence (Q5T2W1 4-100, limits assumed, looked up): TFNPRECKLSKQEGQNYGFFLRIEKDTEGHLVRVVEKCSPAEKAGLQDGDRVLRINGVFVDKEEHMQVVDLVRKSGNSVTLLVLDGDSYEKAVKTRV

[19] = target: NHERF4_1, Q86UT5-2
[20] = target: T10, PDZD2_2, O15018
T10 sequence (O15018 329-429, limits assumed, looked up): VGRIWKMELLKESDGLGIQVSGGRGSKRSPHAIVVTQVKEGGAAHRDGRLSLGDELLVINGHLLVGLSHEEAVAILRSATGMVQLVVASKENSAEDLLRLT

[21] = target: T11, RAPGEF6, Q8TEU7
T11 sequence (Q8TEU7 525-625, limits assumed, looked up): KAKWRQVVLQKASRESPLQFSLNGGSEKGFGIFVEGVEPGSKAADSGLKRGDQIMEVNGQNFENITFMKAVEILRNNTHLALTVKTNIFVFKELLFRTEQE

[22] = target: SCRIB_3, Q14160
[23] = target: TJP1_3, Q07157
[24] = target: TJP2_1, Q9UDY2
[25] = target: T12, TX1BP3, O14907
T12 sequence (O14907 10-122, limits assumed, looked up): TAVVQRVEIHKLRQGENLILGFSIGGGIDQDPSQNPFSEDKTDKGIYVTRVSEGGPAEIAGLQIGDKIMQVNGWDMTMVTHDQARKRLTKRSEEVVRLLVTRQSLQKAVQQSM

[26] = plain residues with an end cap or a label only (N-terminal biotin on a linker: ttds)
[27] = plain residues with an end cap or a label only (N-terminal biotin on a linker: ahx)

Sequence of GRIP2_5, Q9C0E4 (Q9C0E4 544-642): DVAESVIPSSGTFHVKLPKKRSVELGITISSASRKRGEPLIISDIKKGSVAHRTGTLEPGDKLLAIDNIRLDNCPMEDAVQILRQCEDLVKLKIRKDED
Sequence of TJP2_1, Q9UDY2 (Q9UDY2 24-128): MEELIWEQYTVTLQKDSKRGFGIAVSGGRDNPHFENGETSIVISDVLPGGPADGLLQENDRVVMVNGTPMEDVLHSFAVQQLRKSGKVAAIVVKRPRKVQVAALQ
Sequence of NHERF4_1, Q86UT5-2 (Q86UT5 other isoform, or with tags, fused parts or gaps): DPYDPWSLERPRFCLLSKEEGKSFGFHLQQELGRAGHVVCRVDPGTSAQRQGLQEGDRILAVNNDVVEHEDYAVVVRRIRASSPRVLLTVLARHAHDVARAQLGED
Sequence of FRMPD2_3, Q68DX3 (Q68DX3 1073-1166): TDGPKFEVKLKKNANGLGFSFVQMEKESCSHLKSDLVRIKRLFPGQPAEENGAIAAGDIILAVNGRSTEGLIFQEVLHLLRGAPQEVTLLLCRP
Sequence of LDB3, O75112 (O75112 1-94): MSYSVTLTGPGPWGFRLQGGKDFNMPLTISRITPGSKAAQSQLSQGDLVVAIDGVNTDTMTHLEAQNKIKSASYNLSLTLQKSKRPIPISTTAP
Sequence of DLG1_2, Q12959 (Q12959 314-412): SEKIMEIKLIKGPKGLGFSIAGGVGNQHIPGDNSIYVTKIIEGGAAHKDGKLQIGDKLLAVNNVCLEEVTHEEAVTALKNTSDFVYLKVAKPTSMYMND
Sequence of GIPC2, Q8TF65 (Q8TF65 112-203): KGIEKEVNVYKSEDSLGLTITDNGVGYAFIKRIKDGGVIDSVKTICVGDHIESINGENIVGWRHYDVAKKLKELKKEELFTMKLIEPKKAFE
Sequence of Inadl_3, Q8NI35 (Q8NI35 359-469): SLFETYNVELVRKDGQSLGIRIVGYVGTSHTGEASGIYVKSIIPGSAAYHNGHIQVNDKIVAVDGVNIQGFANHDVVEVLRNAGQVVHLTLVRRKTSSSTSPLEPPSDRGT
Sequence of Inadl_6, Q8NI35 (Q8NI35 1058-1167): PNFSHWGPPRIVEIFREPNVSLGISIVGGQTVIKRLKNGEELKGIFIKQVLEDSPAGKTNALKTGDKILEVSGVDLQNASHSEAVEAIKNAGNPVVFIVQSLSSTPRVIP
Sequence of FRMPD2_2, Q68DX3 (Q68DX3 944-1038): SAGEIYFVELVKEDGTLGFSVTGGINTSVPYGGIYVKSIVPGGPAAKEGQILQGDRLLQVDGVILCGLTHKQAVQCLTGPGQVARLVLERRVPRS
Sequence of TJP1_3, Q07157 (Q07157 416-512): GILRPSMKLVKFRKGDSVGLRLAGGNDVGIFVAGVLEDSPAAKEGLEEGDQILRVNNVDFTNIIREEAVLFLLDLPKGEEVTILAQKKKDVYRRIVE
Sequence of Inadl_9, Q8NI35 (Q8NI35 1530-1615): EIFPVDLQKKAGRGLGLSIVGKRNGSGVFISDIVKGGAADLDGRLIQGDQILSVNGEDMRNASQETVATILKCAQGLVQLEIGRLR
Sequence of SCRIB_3, Q14160 (Q14160 999-1103): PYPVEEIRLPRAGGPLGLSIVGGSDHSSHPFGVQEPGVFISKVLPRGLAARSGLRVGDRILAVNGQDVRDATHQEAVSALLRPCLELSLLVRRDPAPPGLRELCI

- pKd [1, 26]: below the threshold
- pKd [2, 26]: 4.86
- pKd [3, 26]: 4.64
- pKd [4, 26]: 4.7
- pKd [5, 26]: 3.72
- pKd [6, 26]: below the threshold
- pKd [7, 26]: 3.75
- pKd [8, 26]: 3.73
- pKd [9, 26]: below the threshold
- pKd [10, 26]: below the threshold
- pKd [11, 26]: below the threshold
- pKd [12, 26]: below the threshold
- pKd [13, 26]: below the threshold
- pKd [14, 26]: 3.94
- pKd [15, 26]: 4.15
- pKd [16, 26]: below the threshold
- pKd [17, 26]: below the threshold
- pKd [18, 26]: 3.98
- pKd [19, 26]: below the threshold
- pKd [20, 26]: 4.12
- pKd [21, 26]: below the threshold
- pKd [22, 26]: 4.54
- pKd [23, 26]: below the threshold
- pKd [24, 26]: below the threshold
- pKd [25, 26]: 4.21
Binder: VLRLQSETSV [VANGL1, Q8TAA9]

- pKd [1, 26]: below the threshold
- pKd [2, 26]: 3.77
- pKd [3, 26]: below the threshold
- pKd [4, 26]: below the threshold
- pKd [5, 26]: below the threshold
- pKd [6, 26]: below the threshold
- pKd [7, 26]: below the threshold
- pKd [8, 26]: 3.82
- pKd [9, 26]: below the threshold
- pKd [10, 26]: below the threshold
- pKd [11, 26]: below the threshold
- pKd [12, 26]: below the threshold
- pKd [13, 26]: below the threshold
- pKd [14, 26]: below the threshold
- pKd [15, 26]: below the threshold
- pKd [16, 26]: 3.53
- pKd [17, 26]: below the threshold
- pKd [18, 26]: 4.33
- pKd [19, 26]: 3.73
- pKd [20, 26]: below the threshold
- pKd [21, 26]: 3.55
- pKd [22, 26]: 4.65
- pKd [23, 26]: below the threshold
- pKd [24, 26]: below the threshold
- pKd [25, 26]: 4.76
Binder: QSARYRDTEL [TJP2, Q9UDY2]

- pKd [1, 27]: below the threshold
- pKd [2, 27]: below the threshold
- pKd [3, 27]: below the threshold
- pKd [4, 27]: below the threshold
- pKd [5, 27]: below the threshold
- pKd [6, 27]: below the threshold
- pKd [7, 27]: below the threshold
- pKd [8, 27]: below the threshold
- pKd [9, 27]: below the threshold
- pKd [10, 27]: below the threshold
- pKd [11, 27]: below the threshold
- pKd [12, 27]: below the threshold
- pKd [13, 27]: below the threshold
- pKd [14, 27]: below the threshold
- pKd [15, 27]: below the threshold
- pKd [16, 27]: below the threshold
- pKd [17, 27]: below the threshold
- pKd [18, 27]: below the threshold
- pKd [19, 27]: below the threshold
- pKd [20, 27]: below the threshold
- pKd [21, 27]: below the threshold
- pKd [22, 27]: below the threshold
- pKd [23, 27]: below the threshold
- pKd [24, 27]: below the threshold
- pKd [25, 27]: below the threshold
Binder: TEAKLTETNA [MYO18A, Q92614]

- pKd [1, 26]: below the threshold
- pKd [2, 26]: below the threshold
- pKd [3, 26]: below the threshold
- pKd [4, 26]: below the threshold
- pKd [5, 26]: below the threshold
- pKd [6, 26]: below the threshold
- pKd [7, 26]: below the threshold
- pKd [8, 26]: 3.51
- pKd [9, 26]: below the threshold
- pKd [10, 26]: below the threshold
- pKd [11, 26]: 3.91
- pKd [12, 26]: below the threshold
- pKd [13, 26]: below the threshold
- pKd [14, 26]: below the threshold
- pKd [15, 26]: below the threshold
- pKd [16, 26]: below the threshold
- pKd [17, 26]: below the threshold
- pKd [18, 26]: 5.25
- pKd [19, 26]: 4.16
- pKd [20, 26]: 4.11
- pKd [21, 26]: below the threshold
- pKd [22, 26]: 4.57
- pKd [23, 26]: below the threshold
- pKd [24, 26]: below the threshold
- pKd [25, 26]: below the threshold
Binder: IDNDTESTAL [ARHGAP17, Q68EM7]

- pKd [1, 26]: below the threshold
- pKd [2, 26]: 3.75
- pKd [3, 26]: 4.14
- pKd [4, 26]: below the threshold
- pKd [5, 26]: below the threshold
- pKd [6, 26]: below the threshold
- pKd [7, 26]: below the threshold
- pKd [8, 26]: below the threshold
- pKd [9, 26]: below the threshold
- pKd [10, 26]: below the threshold
- pKd [11, 26]: below the threshold
- pKd [12, 26]: below the threshold
- pKd [13, 26]: below the threshold
- pKd [14, 26]: 3.51
- pKd [15, 26]: below the threshold
- pKd [16, 26]: below the threshold
- pKd [17, 26]: below the threshold
- pKd [18, 26]: below the threshold
- pKd [19, 26]: below the threshold
- pKd [20, 26]: 4
- pKd [21, 26]: below the threshold
- pKd [22, 26]: below the threshold
- pKd [23, 26]: below the threshold
- pKd [24, 26]: below the threshold
- pKd [25, 26]: 3.67
Binder: PKTPPTDTSV [KIR3DL3, Q8N743]

- pKd [1, 26]: below the threshold
- pKd [2, 26]: 4.2
- pKd [3, 26]: 4
- pKd [4, 26]: below the threshold
- pKd [5, 26]: below the threshold
- pKd [6, 26]: below the threshold
- pKd [7, 26]: 3.79
- pKd [8, 26]: below the threshold
- pKd [9, 26]: below the threshold
- pKd [10, 26]: below the threshold
- pKd [11, 26]: 4.19
- pKd [12, 26]: below the threshold
- pKd [13, 26]: below the threshold
- pKd [14, 26]: below the threshold
- pKd [15, 26]: below the threshold
- pKd [16, 26]: below the threshold
- pKd [17, 26]: below the threshold
- pKd [18, 26]: 5.47
- pKd [19, 26]: 4.06
- pKd [20, 26]: below the threshold
- pKd [21, 26]: below the threshold
- pKd [22, 26]: 5.07
- pKd [23, 26]: below the threshold
- pKd [24, 26]: below the threshold
- pKd [25, 26]: 3.83
Binder: GQDSREETQL [KCNT2, Q6UVM3]
